Measurements taken from patent US20190169308A1 (ALLIGATOR BIOSCIENCE, published 2019).

Assays:
[1] = molecular target: T1, recombinant human OX40 (R&D #1493-CD) (human, UniProt P43489 29-216, limits assumed); experiment: ELISA, coated OX40
T1 sequence (looked up): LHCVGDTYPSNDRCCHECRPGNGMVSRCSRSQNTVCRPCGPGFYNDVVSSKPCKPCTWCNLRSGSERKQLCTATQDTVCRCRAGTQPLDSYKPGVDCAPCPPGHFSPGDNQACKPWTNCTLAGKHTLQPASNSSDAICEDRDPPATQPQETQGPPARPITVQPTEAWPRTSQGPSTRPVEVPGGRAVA
Procedure: (§1) ELISA plates (Greiner #655074) were coated with 50 μl/well of recombinant human OX40 (R&D #1493-CD), CD40-Fc (Ancell #504-820) or CD137 (R&D #838-4B) diluted to a final concentration of 0.5 μg/ml in PBS for 1h at 37° C. or overnight at 4° C. Plates were washed with PBS+0.05% TWEEN20 (PBST), followed by block with PBST+1% bovine serum albumin (BSA). Antibody samples were prepared as serial 1/10 dilutions from 10-0.01 μg/ml in PBST+1% BSA and incubated for 1 h in room temperature, followed by detection using a horse radish peroxidase-conjugated anti-human kappa light chain antibody (AbD Serotec #STAR127P) and developed using SuperSignal ELISA Pico Chemiluminescent substrate (Pierce ThermoScientific #37069).

[2] = molecular target: T2, human/mouse CD137 chimera 1555; experiment: flow cytometry, 293-F cells with CD137 chimera
T2 construct: on transfected FreeStyle 293-F cells
Procedure: (§2) The ability of each antibody to bind to a panel of human/mouse CD137 chimeras expressed on the surface of transfected cells was analyzed by flow cytometry.
(§3) The chimeras were designed by exchanging domains or modules of the human CD137 with the corresponding mouse domain (FIG. 7). Genes of CD137 human/mouse chimeras were synthesized (GenScript) and constructs cloned into pcDNA3.1 vector (Invitrogen) and transiently transfected into FreeStyle 293-F cells (Invitrogen). The transfected cells were incubated with CD137 antibodies and control antibodies, followed by incubation with anti-human IgG-PE (Jackson Immunoresearch) for detection and analyzed with FACS Verse (BD Biosciences). Binding to the different chimeric constructs was calculated as relative MFI compared to the binding of the isotype control, followed by normalization to the full-length human CD137 construct to minimize the effect of affinity differences between individual antibodies.

[3] = molecular target: T3, human/mouse CD137 chimera 1550; experiment: flow cytometry, 293-F cells with CD137 chimera
T3 construct: on transfected FreeStyle 293-F cells
Procedure: as §2, §3

[4] = molecular target: T4, human/mouse CD137 chimera 1554; experiment: flow cytometry, 293-F cells with CD137 chimera
T4 construct: on transfected FreeStyle 293-F cells
Procedure: as §2, §3

[5] = molecular target: T5, human/mouse CD137 chimera 1551; experiment: flow cytometry, 293-F cells with CD137 chimera
T5 construct: on transfected FreeStyle 293-F cells
Procedure: as §2, §3

[6] = molecular target: T6, human/mouse CD137 chimera 1552; experiment: flow cytometry, 293-F cells with CD137 chimera
T6 construct: on transfected FreeStyle 293-F cells
Procedure: as §2, §3

[7] = molecular target: T7, human/mouse CD137 chimera 1553; experiment: flow cytometry, 293-F cells with CD137 chimera
T7 construct: on transfected FreeStyle 293-F cells
Procedure: as §2, §3

[8] = molecular target: T8, recombinant human CD137-Fc (R&D #838-4B) (human, UniProt Q07011 24-186); experiment: ELISA, coated CD137-Fc
T8 construct: bought; also called CD137 (R&D #838-4B); not shown: Fc part, bought reagent, not described
T8 sequence (Q07011 24-186 limits assumed): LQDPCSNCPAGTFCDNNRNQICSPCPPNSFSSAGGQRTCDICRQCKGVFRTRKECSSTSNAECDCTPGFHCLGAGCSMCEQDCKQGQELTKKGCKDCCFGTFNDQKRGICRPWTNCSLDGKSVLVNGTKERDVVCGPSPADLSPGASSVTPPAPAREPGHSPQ
Procedure: Binding of CD137 antibodies to recombinant human CD137 was determined by sandwich ELISA. Briefly, ELISA plates (Greiner #655074) coated with recombinant human CD137-Fc (R&D #838-4B) were incubated with serial dilutions of the various CD137 antibodies to be investigated. CD137 antibodies were detected using HRP-conjugated goat-anti-human kappa light chain (AbD Serotec #STAR127P) and developed with SuperSignal ELISA Pico Chemiluminescent substrate (Pierce #37069). EC50 values of the various antibodies were determined in 2-6 separate experiments.

[9] = molecular target: T9, full-length human CD137 construct 1030 (human, UniProt Q07011 24-255); experiment: flow cytometry, 293-F cells with full-length CD137 (reference of the normalization)
T9 construct: whole, on cells; on transfected FreeStyle 293-F cells; also called Full-length CD137
T9 sequence (Q07011 24-255): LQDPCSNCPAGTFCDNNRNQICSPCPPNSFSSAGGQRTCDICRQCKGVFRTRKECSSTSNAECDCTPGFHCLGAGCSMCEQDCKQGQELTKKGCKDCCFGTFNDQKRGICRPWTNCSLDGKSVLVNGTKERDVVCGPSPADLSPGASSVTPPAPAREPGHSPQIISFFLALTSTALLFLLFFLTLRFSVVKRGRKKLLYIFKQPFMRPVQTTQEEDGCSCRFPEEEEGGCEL
Procedure: as §2, §3

[10] = molecular target: T10, CD40-Fc (Ancell #504-820) (human, UniProt P25942 21-193); experiment: ELISA, coated CD40-Fc
T10 construct: not shown: Fc part, bought reagent, not described
T10 sequence (P25942 21-193 limits assumed): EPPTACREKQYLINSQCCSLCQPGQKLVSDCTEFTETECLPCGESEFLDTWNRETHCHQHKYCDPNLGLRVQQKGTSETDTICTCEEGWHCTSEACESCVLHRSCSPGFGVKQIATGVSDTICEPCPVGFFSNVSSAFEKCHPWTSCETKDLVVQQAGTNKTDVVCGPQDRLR
Procedure: as §1

[11] = molecular target: T11, human CD137 on transfected CHO cells (human, UniProt Q07011 24-186; P25942 194-277, limits assumed); experiment: flow cytometry, CHO-huCD137; 95% CI of EC50
T11 construct: extracellular domain;domain: transmembrane and intracellular part; also called CHO-huCD137; CHOhCD137
T11 sequence (Q07011 other isoform, or with tags, fused parts or gaps limits assumed): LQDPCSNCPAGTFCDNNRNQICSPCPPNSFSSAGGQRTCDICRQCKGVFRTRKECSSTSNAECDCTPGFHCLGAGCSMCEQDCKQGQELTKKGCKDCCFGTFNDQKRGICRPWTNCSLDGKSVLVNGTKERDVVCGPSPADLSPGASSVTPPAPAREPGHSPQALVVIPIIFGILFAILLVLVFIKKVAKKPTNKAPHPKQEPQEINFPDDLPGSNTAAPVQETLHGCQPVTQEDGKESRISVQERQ
Procedure: Binding and EC50 was determined using flow cytometric analysis of CHO cells transfected with human CD137, cynomolgus CD137 or empty vector. The extracellular part of human or cynomolgus CD137 was fused to the transmembrane and intracellular part of human CD40 and cloned into pcDNA3.1. The vector was subsequently stably transfected into CHO cells. […] CD137-transfected and empty vector-transfected cells were incubated with CD137 antibodies for at least 1h at 4° C. to saturate the binding. In order to minimize antibody internalization, 0.05% sodium azide was used in the incubation buffer and all work was performed on ice. […] Directly after staining the cells were fixed with a paraformaldehyde solution (10x concentrate BD CellFIX, BD biosciences #340181). Cells were analyzed by flow cytometry using FACSVerse (BD Biosciences). The median fluorescence intensity (MFI) for each sample was determined and the dose response data was analysed using Graph Pad Prism.
MFI data was normalized for each antibody, where 0% is defined as the lowest value and 100% is the highest value in the dose titration for each antibody.

binding result [1]: no binding (tested: 10 µg/ml) | MFI/isotype control normalized to full-length human CD137 [2]: 0.24 | MFI/isotype control normalized to full-length human CD137 [3]: 0.05 | MFI/isotype control normalized to full-length human CD137 [4]: 0.84 | MFI/isotype control normalized to full-length human CD137 [5]: 0.04 | MFI/isotype control normalized to full-length human CD137 [6]: 0.05 | MFI/isotype control normalized to full-length human CD137 [7]: 0.65 | EC50 [8]: 0.39 nM | MFI/isotype control normalized to full-length human CD137 [9]: 1 | binding result [10]: no binding (tested: 10 µg/ml) | EC50 [11]: 0.2 to 0.36 mg/L
B1: 1200/1201 (antibody, V domains shown)
VH: EVQLLESGGGLVQPGGSLRLSCAASGFTFSSYAMSWVRQAPGKGLEWVSGISGGGGGTYYADSVKGRFTISRDNSKNTLYLQMNSLRAEDTAVYYCARDVAYFDYWGQGTLVTVSS
VL: DIQMTQSPSSLSASVGDRVTITCRASQSISSYLNWYQQKPGKAPKLLIYAASSLQSGVPSRFSGSGSGTDFTLTISSLQPEDFATYYCQQYYIPHTFGQGTKLEIK
